Measurements: the supplement of paper PMC7877785
± gives the uncertainty stated by the source.

Test: self-splicing fitness, log relative to wild type (ln ratio); higher = more splicing; Tetrahymena group I intron in knt gene, E. coli kanamycin selection, DiMSum; sequences stand for … in CUCUCU…GGAGGGAAAAGUUAUCAGGCAUGCACCUGGUAGCUAGUCUUUAAACCAAUAGAUUGCAUCGGUUUAAAAGGCAAGACCGUCAAAUUGCGGGAAAGGGGUCAACAGCCGUUCAGUACCAAGUCUCAGGGGAAACUUUGAGAUGGCCUUGCAAAGGGUAUGGUAAUAAGCUGACGGACAUGGUCCUAACCACGCAGCCAAGUCCUAAGUCAACAGAUCUUCUGUUGAUAUGGAUGCAGUUCACAGACUAAAUGUCGGUCGGGGAAGAUGUAUUCUUCUCAUAAGAUAUAGUCGGACCUCUCCUUAAUGGGAGCUAGCGGAUGAAGUGAUGCAACACUGGAGCCGCUGGGAACUAAUUUGUAUGCGAAAGUAUAUUGAUUAGUUUUGGAGUACUCGUGGUCG
How it was run: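 The eight P1ex-region nucleotides of an intron in the knt kanamycin-resistance gene on pET-22b(+) were all randomised and the library put into E. coli BL21(DE3). Six replicate transformations were grown overnight at 37°C or 30°C on LB agar with or without 25 μg/mL kanamycin, together with 100 μg/mL carbenicillin, 50 μM IPTG and 0.2% rhamnose. Colonies were pooled and amplicon-sequenced on an Illumina HiSeq 2500. Fitness from DiMSum is the error-weighted combination of wild-type-normalised replicate fold changes, kanamycin over none.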

Sequence | self-splicing fitness (ln) (30 °C) | self-splicing fitness (ln) (37 °C)
CGUCAGCAAUAUUACGUGAG | -0.162 ± 0.04 | -0.124 ± 0.061
CGUCAGCAAUAUUACGUUAA | -3.28 ± 0.17 | -2.38 ± 0.14
CGUCAGCAAUAUUACGUUUA | -2.93 ± 0.18 | -1.66 ± 0.16
CGUCAGCAAUAUUACGUUUG | -1.14 ± 0.062 | -0.102 ± 0.079
CGUGAGCAAUAUUACGAACC | -1.44 ± 0.18 | -0.0387 ± 0.24
CGUGAGCAAUAUUACGAACU | -2.23 ± 0.3 | -0.177 ± 0.29
CGUGAGCAAUAUUACGAAGA | -1.53 ± 0.37 | –
CGUGAGCAAUAUUACGAGGG | -3.77 ± 0.3 | -2.36 ± 0.25
CGUGAGCAAUAUUACGCAGU | -3.4 ± 0.41 | -2.03 ± 0.44
CGUGAGCAAUAUUACGCGAG | -1.12 ± 0.21 | –
CGUGAGCAAUAUUACGGAGG | -2.69 ± 0.17 | -0.9 ± 0.14
CGUGAGCAAUAUUACGGGAU | -3.49 ± 0.22 | -2.24 ± 0.21
CGUGAGCAAUAUUACGGGUG | -0.878 ± 0.067 | -0.658 ± 0.078
CGUGAGCAAUAUUACGGUCC | -3.39 ± 0.24 | -1.69 ± 0.24
CGUGAGCAAUAUUACGGUGG | -2.03 ± 0.082 | -1.35 ± 0.1
CGUGAGCAAUAUUACGGUUG | -1.49 ± 0.07 | -0.412 ± 0.094
CGUGAGCAAUAUUACGUGGA | -3.06 ± 0.15 | -2.11 ± 0.14
CGUUAGCAAUAUUACGACAU | -1.529 ± 0.015 | -0.592 ± 0.033
CGUUAGCAAUAUUACGCGCU | -1.9 ± 0.2 | -1.73 ± 0.17
CGUUAGCAAUAUUACGCGUC | -3.47 ± 0.23 | –

Sequence | self-splicing fitness (ln) (30 °C) | self-splicing fitness (ln) (37 °C)
CGUUAGCAAUAUUACGGCUA | -2.27 ± 0.37 | –
CGUUAGCAAUAUUACGGCUU | -0.864 ± 0.16 | -2.39 ± 0.31
CGUUAGCAAUAUUACGGGCA | -0.756 ± 0.15 | -1.2 ± 0.11
CGUUAGCAAUAUUACGGGUU | -3.4 ± 0.24 | -2.42 ± 0.25
CGUUAGCAAUAUUACGGUGA | -2.76 ± 0.21 | -0.883 ± 0.16
CGUUAGCAAUAUUACGUCUA | -3 ± 0.28 | -2.33 ± 0.24
CGUUAGCAAUAUUACGUGGU | -4.09 ± 0.26 | -2.6 ± 0.28
CGUUAGCAAUAUUACGUGUU | -4.58 ± 0.22 | -3.04 ± 0.17
CUAAAGCAAUAUUACGAAUC | -4.03 ± 0.14 | -2.46 ± 0.16
CUAAAGCAAUAUUACGACAU | -3.986 ± 0.024 | -2.72 ± 0.039
CUAAAGCAAUAUUACGACCU | -4.28 ± 0.46 | -1.97 ± 0.22
CUAAAGCAAUAUUACGAGAU | -2.72 ± 0.16 | -2.05 ± 0.23
CUAAAGCAAUAUUACGAUCC | -2.81 ± 0.27 | -1.13 ± 0.36
CUAAAGCAAUAUUACGAUGA | -2.57 ± 0.11 | -0.323 ± 0.1
CUAAAGCAAUAUUACGAUUA | -2.51 ± 0.092 | -1.19 ± 0.12
CUAAAGCAAUAUUACGCAUC | -4.03 ± 0.35 | –
CUAAAGCAAUAUUACGCCAA | -4.58 ± 0.32 | -3.1 ± 0.37
CUAAAGCAAUAUUACGCCAG | -0.416 ± 0.13 | 0.13 ± 0.19
CUAAAGCAAUAUUACGCGAG | -0.464 ± 0.077 | 0.0633 ± 0.11
CUAAAGCAAUAUUACGCGGG | -2.27 ± 0.13 | -2.03 ± 0.15
